According to the supplement of paper PMC7877785:
± gives the uncertainty stated by the source.

Assay: self-splicing fitness, log relative to wild type (ln ratio); higher = more splicing; Tetrahymena group I intron in knt gene, E. coli kanamycin selection, DiMSum; sequences stand for … in CUCUCU…GGAGGGAAAAGUUAUCAGGCAUGCACCUGGUAGCUAGUCUUUAAACCAAUAGAUUGCAUCGGUUUAAAAGGCAAGACCGUCAAAUUGCGGGAAAGGGGUCAACAGCCGUUCAGUACCAAGUCUCAGGGGAAACUUUGAGAUGGCCUUGCAAAGGGUAUGGUAAUAAGCUGACGGACAUGGUCCUAACCACGCAGCCAAGUCCUAAGUCAACAGAUCUUCUGUUGAUAUGGAUGCAGUUCACAGACUAAAUGUCGGUCGGGGAAGAUGUAUUCUUCUCAUAAGAUAUAGUCGGACCUCUCCUUAAUGGGAGCUAGCGGAUGAAGUGAUGCAACACUGGAGCCGCUGGGAACUAAUUUGUAUGCGAAAGUAUAUUGAUUAGUUUUGGAGUACUCGUGGUCG
Method in brief: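 Colonies from six replicate transformations of E. coli BL21(DE3) were pooled and amplicon-sequenced on an Illumina HiSeq 2500. The library placed an intron with all eight P1ex-region nucleotides randomised inside the knt kanamycin-resistance gene on pET-22b(+), and cells grew overnight at 37°C or 30°C on LB agar with or without 25 μg/mL kanamycin (plus 100 μg/mL carbenicillin, 50 μM IPTG, 0.2% rhamnose). Fitness is the DiMSum error-weighted combination of wild-type-normalised replicate fold changes, kanamycin versus none.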

Sequence | self-splicing fitness (ln) (30 °C) | self-splicing fitness (ln) (37 °C)
CUGGAGCAAUAUUACGACCA | -1.68 ± 0.31 | -1.61 ± 0.38
CUGGAGCAAUAUUACGAGCU | – | -1.66 ± 0.46
CUGGAGCAAUAUUACGAGGA | -3.18 ± 0.33 | –
CUGGAGCAAUAUUACGAUAG | -2.16 ± 0.25 | -1.38 ± 0.22
CUGGAGCAAUAUUACGCAUA | – | -2.22 ± 0.37
CUGGAGCAAUAUUACGCCUA | -1.84 ± 0.36 | -1.44 ± 0.32
CUGGAGCAAUAUUACGCCUG | -1.22 ± 0.22 | -1.39 ± 0.28
CUGGAGCAAUAUUACGCGAC | -0.944 ± 0.27 | -1.84 ± 0.36
CUGGAGCAAUAUUACGCUUG | -3.94 ± 0.34 | -2.35 ± 0.45
CUGGAGCAAUAUUACGGAAA | -2.47 ± 0.33 | -2.78 ± 0.35
CUGGAGCAAUAUUACGGACA | -3.7 ± 0.43 | -2.45 ± 0.46
CUGGAGCAAUAUUACGGCCA | – | -1.99 ± 0.24
CUGGAGCAAUAUUACGGGAA | -2.68 ± 0.31 | -2.36 ± 0.27
CUGGAGCAAUAUUACGGGAU | -4.01 ± 0.37 | -1.91 ± 0.28
CUGGAGCAAUAUUACGUGAG | -0.772 ± 0.049 | -0.213 ± 0.063
CUGGAGCAAUAUUACGUGGG | -3.7 ± 0.2 | -2.52 ± 0.26
CUGGAGCAAUAUUACGUGUA | -3.32 ± 0.32 | -1.57 ± 0.37
CUGGAGCAAUAUUACGUGUG | -1.53 ± 0.11 | -0.75 ± 0.13
CUGGAGCAAUAUUACGUGUU | -3.3 ± 0.16 | -3.31 ± 0.21
CUGUAGCAAUAUUACGACAA | -0.568 ± 0.11 | 0.0313 ± 0.11
CUGUAGCAAUAUUACGACCA | -1.45 ± 0.38 | –
CUGUAGCAAUAUUACGACUA | -1.74 ± 0.42 | -0.817 ± 0.3
CUGUAGCAAUAUUACGAGGC | -3.31 ± 0.37 | -3.04 ± 0.32
CUGUAGCAAUAUUACGAGUC | – | -2.05 ± 0.31
CUGUAGCAAUAUUACGAUUU | – | -2.62 ± 0.36
CUGUAGCAAUAUUACGCACA | -2.05 ± 0.13 | -1.19 ± 0.16

Sequence | self-splicing fitness (ln) (30 °C) | self-splicing fitness (ln) (37 °C)
CUGUAGCAAUAUUACGCGAG | -3.06 ± 0.29 | -2.13 ± 0.25
CUGUAGCAAUAUUACGCGUA | -3.3 ± 0.3 | -2.89 ± 0.25
CUGUAGCAAUAUUACGCUUG | -2.62 ± 0.14 | -2.02 ± 0.16
CUGUAGCAAUAUUACGGCCC | – | -0.731 ± 0.38
CUGUAGCAAUAUUACGGCCU | – | -3.02 ± 0.34
CUGUAGCAAUAUUACGGCUA | – | -1.51 ± 0.39
CUGUAGCAAUAUUACGGGGG | -4.4 ± 0.37 | -2.68 ± 0.31
CUGUAGCAAUAUUACGUAUC | -4.3 ± 0.47 | -1.57 ± 0.38
CUGUAGCAAUAUUACGUAUG | -0.387 ± 0.11 | -0.224 ± 0.16
CUGUAGCAAUAUUACGUCGG | -3.47 ± 0.2 | -1.87 ± 0.18
CUGUAGCAAUAUUACGUGCA | -2.56 ± 0.18 | -2.5 ± 0.16
CUGUAGCAAUAUUACGUUGG | -3.56 ± 0.13 | -1.46 ± 0.11
CUGUAGCAAUAUUACGUUUC | -3.58 ± 0.19 | -2.99 ± 0.32
CUUAAGCAAUAUUACGAAAA | -1.9 ± 0.26 | –
CUUAAGCAAUAUUACGACGA | -3.58 ± 0.25 | -2.61 ± 0.23
CUUAAGCAAUAUUACGAGAG | -4.39 ± 0.42 | -2.48 ± 0.45
CUUAAGCAAUAUUACGAGCG | -0.691 ± 0.1 | -0.156 ± 0.15
CUUAAGCAAUAUUACGAGUA | -3.63 ± 0.24 | -1.94 ± 0.2
CUUAAGCAAUAUUACGAUAG | -2.01 ± 0.15 | -0.283 ± 0.15
CUUAAGCAAUAUUACGAUGU | -3.88 ± 0.37 | -0.792 ± 0.21
CUUAAGCAAUAUUACGCAAG | -3.07 ± 0.41 | -2.58 ± 0.34
CUUAAGCAAUAUUACGCCAA | -2.46 ± 0.42 | -2.43 ± 0.33
CUUAAGCAAUAUUACGCUGC | – | -1 ± 0.35
CUUAAGCAAUAUUACGGAAA | -3.23 ± 0.38 | -2.1 ± 0.28
CUUAAGCAAUAUUACGGACU | -3.14 ± 0.15 | -1.62 ± 0.17
